Source: patent US6861508B2, “Transcriptional intermediary factor-2” (Institut National de la Sante et de la Recherche Medicale, priority 1996, dated 2005)
One block for each molecule: values may come before it.

B4: GST-mRXRα(DE) (pGEX2T-mRXRα(DE), amino acids 205-467) (receptor, mouse, UniProt P28700 205-467, looked up)
chain: MKREAVQEERQRGKDRNENEVESTSSANEDMPVEKILEAELAVEPKTETYVEANMGLNPSSPNDPVTNICQAADKQLFTLVEWAKRIPHFSELPLDDQVILLRAGWNELLIASFSHRSIAVKDGILLATGLHVHRNSAHSAGVGAIFDRVLTELVSKMRDMQMDKTELGCLRAIVLFNPDSKGLSNPAEVEALREKVYASLEAYCKHKYPEQPGRFAKLLLRLPALRSIGLKCLEHLFFFKLIGDTPIDTFLMEMLEAPHQAT
notes: range 205-467; also called GST-RXR; GST-RXRα(DE); not shown: glutathione-S-transferase (GST) of pGEX2T (Pharmacia)

Tests used:
GAL4 reporter = assay: GAL4 DBD-TIF2 fusion CAT reporter transactivation assay; format: cell-based; settings: Cos-1 and/or HeLa cells
Description: (a) HeLa cells were cotransfected with 1 μg (17m)5-βG-CAT and 10 μg GAL(1-147) or 1,3 and 10 μg GAL(1-147)-TIF2.1, respectively.
(c) Analysis of the transcriptional activity of GAL-TIF2 fusion proteins. Cos-1 and HeLa cells were transfected with 3 lag of plasmids expressing different regions of TIF2 fised to the DNA-binding domain of the yeast transcription factor GALA together with 1 μg of the (7m)5-G-CAT reporterplasmid. CAT assays were performed as described (Bocquel, M. T. et al., Nucl Acids Res. 17:2581-2595 (1989)). Quantitative data on CAT reporter expression were obtained either by phosphoimager analysis (BAS2000, Fuji) of ^14C-labeled CAT reaction products separated by thin-layer chromatography, or using the CAT ELISA Kit (Boehringer Mannheim). In all cases, CAT activities were normalized to the β-galactosidase concentrations resulting from cotransfection of 1 μg of pCMVPGal (gift from T. Lerouge) as internal control. Fold inductions above the GAL4 DBD value are indicated. The mean and standard deviation of at least three experiments are shown. A representative Western blot, illustrating the expression levels of the GAL4-TIF2 fusion proteins, expressed from 10 μg of the corresponding expression vectors, is shown on the left.
(b) Transcriptional activation of TIF2 AF-1 mutants. Cos-1 and HeLa cells were cotransfected with 3 μg of plasmids expressing different mutants of the TIF2 AF-1 fused to the DNA-binding domain of the yeast transcription factor GAL4 together with 1 μg of the (17m)5-G-CAT reporter plasmid. Fold inductions above the activation seen with the GAL4 DBD alone are indicated. The values represent the mean of at least three experiments.
(a) Transcriptional activation by TIF2.13 and TIF2.13 mutants. Cos-1 and HeLa cells were cotransfected with 3 μg of plasmids expressing the TIF2.13 region and the indicated TIF2.13 mutants fused to the DNA-binding domain of the yeast transcription factor GALA together with 1 μg of the (17m)5-G-CAT reporter plasmid. Fold inductions above the GAL4 DBD 1-fold value are indicated. The mean and standard deviation obtained from at least four experiments are shown. The expression levels of the GAL4-TIF2.13 fusion proteins were confirmed by western blotting (data not shown).
Transient transfections of HeLa and Cos-1 cells were performed as described (Gronemeyer et al., (1987); Bocquel, M. T. et al., Nucl. Acids Res. 17:2581-2595 (1989)).

ER, RARα and RXRα LBDs = assay: GST pull-down of TIF2 polypeptides with NR LBDs; format: binding; settings: in vitro, with or without 10^−6 M ligand
Description: (b) Mapping of the nuclear receptor-interacting domain of TIF2.
(c-d) Interaction of TIF2 NID mutants with NRs in vitro. […] For quantification of point mutant interactions, see below.
(e-f) Effect of TIF2 NID point mutations on stimulation of NR AF-2 activity. Cos-1 cells were cotransfected with 1 μg of the (17m)5-TATA-CAT reporter, 0.2 μg of GAL-hERα(EF) or GAL-mRXRα(DE), and 2.5 μg of the TIF2.1 wildtype or mutated fragments, as indicated. […] Each bar represents the mean value obtained from at least three (interaction) or at least four (transactivation) experiments, respectively; standard deviations are indicated. Note that the absolute values for TIF2.1 wildtype activity varied by ±16% when cotransfected with GAL-hERα(EF) and by ±34% when cotransfected with GAL-mRXRα(DE). In the in-vitro-interaction assays, the affinity of the TIF2.1 wildtype standard varied by less than ±25%. Expression levels of TIF2 mutants in the cells were verified by Western blot (not shown) with mouse monoclonal antibody 3Ti3F1, which is directed against an epitope outside the mutated area.
To further delineate the TIF2 NR interaction domain (NID), we studied the interaction between a series of TIF2 deletion mutants and the ER or RARα LBDs, using GST-fusion protein-based in vitro assays. In both cases, an NWD was mapped to the central region of TIF2 (amino acids 624-869 in mutant TIF2.5; see FIGS. 7a and b). No additional NWD could be identified in the N- or C-termini of TIF2 (FIGS. 7a and b; mutants TIF2.0, TIF2.2 and TIF2.7). Note that, in contrast, SRC-1, a paralogue of TIF2, apparently harbours two distinct non-contiguous NIDs located in the central and C-terminal regions (Onate, S. A. et al., Science 270:1354-1357 (1995), Yao, T. P. et al., Proc. Natl. Acad. Sci. USA 93:10626-10631 (1996); Zhu, Y. et al., Gene Epression 6:185-195 (1996)).

[1] = biological target: T1, TIF2.1 (TIF2 amino acids 624 to 1287) (human, UniProt Q15596 624-1287); assay: Far-Western blot with 32P-labelled NR LBD probe, agonist present
T1 construct: Form without a stated tag: expression-library clone, expressed in Cos cells from pSG5, or in-vitro-translated; also called cytoplasmic TIF2.1 polypeptide
T1 sequence: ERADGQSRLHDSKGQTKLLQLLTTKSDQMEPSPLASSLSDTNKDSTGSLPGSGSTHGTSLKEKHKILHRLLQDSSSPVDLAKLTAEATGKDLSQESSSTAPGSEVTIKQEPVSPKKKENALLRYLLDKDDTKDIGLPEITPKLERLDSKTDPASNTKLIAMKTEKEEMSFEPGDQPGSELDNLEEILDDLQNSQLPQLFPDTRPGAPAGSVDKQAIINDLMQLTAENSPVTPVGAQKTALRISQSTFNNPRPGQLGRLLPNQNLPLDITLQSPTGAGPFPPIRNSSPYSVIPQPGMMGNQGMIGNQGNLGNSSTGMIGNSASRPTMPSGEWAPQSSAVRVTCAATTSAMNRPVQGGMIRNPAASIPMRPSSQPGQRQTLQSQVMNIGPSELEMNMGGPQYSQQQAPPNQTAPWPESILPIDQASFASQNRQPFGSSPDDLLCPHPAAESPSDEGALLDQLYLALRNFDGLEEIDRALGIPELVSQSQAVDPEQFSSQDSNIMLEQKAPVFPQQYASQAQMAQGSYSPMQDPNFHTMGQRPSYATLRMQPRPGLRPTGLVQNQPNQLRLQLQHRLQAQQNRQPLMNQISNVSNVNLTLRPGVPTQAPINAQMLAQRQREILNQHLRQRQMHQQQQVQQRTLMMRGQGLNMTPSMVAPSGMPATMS

[2] = biological target: B4; assay: in vitro GST interaction of TIF2.1 point mutants, with ligand, relative to TIF2.1 wild type
[3] = biological target: T2, GST-hRARα(DEF) (pGEX2T-hRARα(DEF), amino acids 153-462) (human, UniProt P10276 153-462); assay: as above
T2 construct: range 153-462; Bacterially produced; also called GST-RAR; GST-RARα(DEF); not shown: glutathione-S-transferase (GST) of pGEX2T (Pharmacia)
T2 sequence (looked up): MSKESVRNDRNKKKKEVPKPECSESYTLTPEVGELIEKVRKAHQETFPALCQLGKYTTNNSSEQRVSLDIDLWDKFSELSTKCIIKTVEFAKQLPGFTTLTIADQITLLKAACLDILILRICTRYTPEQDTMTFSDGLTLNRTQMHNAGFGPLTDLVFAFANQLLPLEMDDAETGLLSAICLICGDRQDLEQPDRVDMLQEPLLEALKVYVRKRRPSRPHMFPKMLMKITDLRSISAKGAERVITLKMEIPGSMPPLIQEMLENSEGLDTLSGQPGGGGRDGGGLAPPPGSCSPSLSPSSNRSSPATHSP

B1: TIF2.15: TIF2.13 with removal of 26 C-terminal amino acid residues (protein, UniProt Q15596 1011-1096, looked up, fragment)
chain: PSELEMNMGGPQYSQQQAPPNQTAPWPESILPIDQASFASQNRQPFGSSPDDLLCPHPAAESPSDEGALLDQLYLALRNFDGLEEI
transcriptional activation of GAL4 reporter by GAL4 DBD fusion (GAL4 reporter): reduced transcriptional activity only weakly

B2: TIF2.34: TIF2.5 C-terminally truncated to Pro775 (protein)
chain: MKLLSSIEQACDICRLKKLKCSKEKPKCAKCLKNNWECRYSPKTKRSPLTRAHLTEVESRLERLEQLFLLIFPREDLDMILKMDSLQDIKALLTGLFVQDNVNKDAVTDRLASVETDMPLTLRQHRISATSSSEESSNKGQRQLTVSERADGQSRLHDSKGQTKLLQLLTTKSDQMEPSPLASSLSDTNKDSTGSLPGSGSTHGTSLKEKHKILHRLLQDSSSPVDLAKLTAEATGKDLSQESSSTAPGSEVTIKQEPVSPKKKENALLRYLLDKDDTKDIGLPEITPKLERLDSKTDP
binding to NRs (ER, RARα LBDs) (ER, RARα and RXRα LBDs): interacted with ER and RARα LBDs in a ligand-dependent manner

B3: TIF2.18: TIF2.13 with removal of 20 N-terminal amino acid residues (protein, UniProt Q15596 1031-1122, looked up, fragment)
chain: NQTAPWPESILPIDQASFASQNRQPFGSSPDDLLCPHPAAESPSDEGALLDQLYLALRNFDGLEEIDRALGIPELVSQSQAVDPEQFSSQDS
transcriptional activation of GAL4 reporter by GAL4 DBD fusion (GAL4 reporter): reduced transcriptional activity only weakly

Molecule: B4
binding result [1]: binds

times less efficient in NR interaction than the wild-type TIF2 [2]: 20 times less efficient than wild type
times less efficient in NR interaction than the wild-type TIF2 [3]: 20 times less efficient than wild type
B5: TIF2.1 m12 (LL→AA in NR box motifs I and II) (other)
chain: ERADGQSRLHDSKGQTKLLQAATTKSDQMEPSPLASSLSDTNKDSTGSLPGSGSTHGTSLKEKHKILHRAAQDSSSPVDLAKLTAEATGKDLSQESSSTAPGSEVTIKQEPVSPKKKENALLRYLLDKDDTKDIGLPEITPKLERLDSKTDPASNTKLIAMKTEKEEMSFEPGDQPGSELDNLEEILDDLQNSQLPQLFPDTRPGAPAGSVDKQAIINDLMQLTAENSPVTPVGAQKTALRISQSTFNNPRPGQLGRLLPNQNLPLDITLQSPTGAGPFPPIRNSSPYSVIPQPGMMGNQGMIGNQGNLGNSSTGMIGNSASRPTMPSGEWAPQSSAVRVTCAATTSAMNRPVQGGMIRNPAASIPMRPSSQPGQRQTLQSQVMNIGPSELEMNMGGPQYSQQQAPPNQTAPWPESILPIDQASFASQNRQPFGSSPDDLLCPHPAAESPSDEGALLDQLYLALRNFDGLEEIDRALGIPELVSQSQAVDPEQFSSQDSNIMLEQKAPVFPQQYASQAQMAQGSYSPMQDPNFHTMGQRPSYATLRMQPRPGLRPTGLVQNQPNQLRLQLQHRLQAQQNRQPLMNQISNVSNVNLTLRPGVPTQAPINAQMLAQRQREILNQHLRQRQMHQQQQVQQRTLMMRGQGLNMTPSMVAPSGMPATMS
notes: also called single intact NR box III
